Biological target: HARE(ΔM3) single-motif deletion cytoplasmic domain mutant lacking NPLY2519
Assay: co-IP; HARE variants precipitated from cell lysate (300 μg protein) with goat anti-V5 Ab (2 μg/ml) and Protein A/G Plus Agarose, 4°C; blot with anti-tERK1/2 Ab; cells incubated with or without 10 μg/ml (709 nM) UFH for 20 min; Lysis Buffer with 0.5% Nonidet P-40

percent decrease of association (tERK:HARE ratio) against WT HARE [%] | Substance
67 | ERK2 (of ERK1/2, p44/42) (from UniProt P28482 1-360) (enzyme)
67 | ERK1 (of ERK1/2, p44/42) (from UniProt P27361 1-379) (enzyme)
